Results on two molecules are retold here after US20190247480A1.

This assay has as its target HLA-A3 (human). Kind of assay: assembly assay, stabilisation of HLA-A3 in T2-A3 lysates, W6/32 immunoprecipitation.

Regarding RLGLQVRKNK [Rho1L2 (…), modified RhoC peptide with Leu at position 2], the C50 value (peptide concentration required for half maximal recovery of class I MHC molecules) was 4.

For RAGLQVRKNK [Rho1 (…), native RhoC-derived peptide], the C50 value (peptide concentration required for half maximal recovery of class I MHC molecules) was over 40.
